According to article PMC9547286, “LOXL2-dependent deacetylation of aldolase A induces metabolic reprogramming and tumor progression^☆” (Redox Biology, 2022):

Target: T1, LOXL2-Flag (human, UniProt Q9Y4K0 26-774)
T1 construct: Lysyl oxidase-like 2 (LOXL2), human, full-length form (774 aa by the printed limits of its C-terminal domain); also called Flag-tagged LOXL2; source: HEK293T, transfected, immunopurified
T1 sequence (looked up): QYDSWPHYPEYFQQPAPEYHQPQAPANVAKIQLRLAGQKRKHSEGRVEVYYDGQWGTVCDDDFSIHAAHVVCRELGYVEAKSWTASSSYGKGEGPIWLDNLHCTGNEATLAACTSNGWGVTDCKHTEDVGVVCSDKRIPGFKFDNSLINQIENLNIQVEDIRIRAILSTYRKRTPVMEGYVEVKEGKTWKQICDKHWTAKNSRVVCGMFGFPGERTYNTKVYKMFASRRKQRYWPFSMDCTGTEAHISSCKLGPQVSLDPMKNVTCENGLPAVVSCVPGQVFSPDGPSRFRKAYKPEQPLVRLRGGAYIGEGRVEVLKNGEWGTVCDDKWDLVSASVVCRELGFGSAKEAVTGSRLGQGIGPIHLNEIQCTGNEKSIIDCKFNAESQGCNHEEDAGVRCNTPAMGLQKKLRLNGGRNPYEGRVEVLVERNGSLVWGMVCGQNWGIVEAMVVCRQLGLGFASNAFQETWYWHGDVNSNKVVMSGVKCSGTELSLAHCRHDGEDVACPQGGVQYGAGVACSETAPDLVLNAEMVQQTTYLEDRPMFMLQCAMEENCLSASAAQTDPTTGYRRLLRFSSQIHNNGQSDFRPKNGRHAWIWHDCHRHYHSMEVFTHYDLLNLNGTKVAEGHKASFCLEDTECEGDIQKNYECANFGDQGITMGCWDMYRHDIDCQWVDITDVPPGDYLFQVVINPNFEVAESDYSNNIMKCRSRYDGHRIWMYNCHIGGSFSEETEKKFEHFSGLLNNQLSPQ
Experiment: pull-down; Purified GST-aldolase A or GST from bacteria on glutathione resins, incubated with immunopurified LOXL2-Flag or L2Δ13-Flag from HEK293T at 4 °C for 2 h; immunoblot with anti-Flag
Details: both partners purified

- binding result: binds
B1: GST-aldolase A (enzyme, human)
chain: PYQYPALTPEQKKELSDIAHRIVAPGKGILAADESTGSIAKRLQSIGTENTEENRRFYRQLLLTADDRVNPCIGGVILFHETLYQKADDGRPFPQVIKSKGGVVGIKVDKGVVPLAGTNGETTTQGLDGLSERCAQYKKDGADFAKWRCVLKIGEHTPSALAIMENANVLARYASICQQNGIVPIVEPEILPDGDHDLKRCQYVTEKVLAAVYKALSDHHIYLEGTLLKPNMVTPGHACTQKFSHEEIAMATVTALRRTVPPAVTGITFLSGGQSEEEASINLNAINKCPLLKPWALTFSYGRALQASALKAWGGKKENLKAAQEEYVKRALANSLACQGKYTPSGQAGAAASESLFVSNHAY
notes: Aldolase A (fructose-bisphosphate aldolase A), human; also called GST-tagged aldolase A; GST-Aldolase A fusion protein; source: bacteria, purified recombinant, retained on glutathione resins
